For assay [1], the target named is His10-PD-1^ICD PD-1^FY, pre-phosphorylated (human) (UniProt Q15116). Kind of assay: SPR; OpenSPR (Nicoya); pre-phosphorylated His10-tagged PD-1 or BTLA ICD immobilised on a Ni sensor chip (about 1500 RU); SH2 injected at 20-1000 nM, 20 μl/min; 20 mM HEPES, 150 mM NaCl, 5 mM imidazole, 0.05% Tween-20, 10% glycerol, pH 7.5; equilibrium analysis (Evaluate EC50, TraceDrawer). A general note: In SPR one partner is held on a chip, and binding of the other changes the refractive index at the surface.

Assay [2] addresses His10-PD-1^ICD PD-1^YF, pre-phosphorylated (human) (UniProt Q15116). The assay is described as above.
The target in assay [3] is His10-BTLA^ICD BTLA^FFYF, pre-phosphorylated (human) (UniProt Q7Z6A9). The assay is described as above.
The target of assay [4] is pre-phosphorylated His10-BTLA ICD (aa 190-289) triple-tyrosine-mutant FFYF (human) (UniProt Q7Z6A9). Kind of assay: SPR; OpenSPR (Nicoya); pre-phosphorylated His10-tagged PD-1 ICD or BTLA ICD tyrosine mutant immobilised on a Ni sensor chip (about 1500 RU); SH2 injected at 20-1000 nM, 20 ul/min; 20 mM HEPES, 150 mM NaCl, 5 mM imidazole, 0.05% Tween-20, 10% glycerol, pH 7.5; equilibrium fit ('Evaluate EC50', TraceDrawer); three independent repeats on different chips.

Assay [5] addresses pre-phosphorylated His10-PD-1 ICD (aa 194-288) PD-1^FY (human) (UniProt Q15116). The description is as above.
Assay [6] concerns the target pre-phosphorylated His10-PD-1 ICD (aa 194-288) PD-1^YF (human) (UniProt Q15116). The description is as above.
Assay [7] concerns the target pre-phosphorylated His10-BTLA ICD (aa 190-289) triple-tyrosine-mutant FFFY (human) (UniProt Q7Z6A9). Described as above.

Where “and” joins values, the source holds several entries; their conditions need not be identical. Equal entries are not always repeated.

Usually Kd stands for a measure of binding affinity in units of concentration. High values mean lower affinity, low ones higher affinity. For SNAP-SHP2-cSH2 (domain or fragment), the Kd in assay [1] was determined as 100 nM; in assay [2], 1400 nM.

Turning to SNAP-SHP1-nSH2 (domain or fragment), the Kd in assay [3] is 64 nM.

For “SNAP-SHP1-nSH2 (from UniProt P29350 1-595) (domain or fragment)”, the dissociation constant Kd in assay [4] was 50 nM and 73 nM and 68 nM; in assay [5] it was 72 nM and 110 nM and 88.3 nM; in assay [6] it was 200 nM and 210 nM and 400 nM.

With “SNAP-SHP2-nSH2 (from UniProt Q06124 1-593) (domain or fragment)”, the Kd in assay [4] is 430 nM and 270 nM; in assay [5], 120 nM and 110 nM and 200 nM; in assay [6], 270 nM and 420 nM and 460 nM.

As for “SNAP-SHP2-cSH2 (from UniProt Q06124 1-593) (domain or fragment)”, the Kd in assay [5] is 83 nM and 77 nM and 130 nM; in assay [6], 1900 nM and 770 nM and 1400 nM.

Turning to SNAP-SHP2-nSH2 (domain or fragment), the Kd in assay [1] amounted to 140 nM; in assay [2] it was 380 nM.

As for “SNAP-SHP1-cSH2 (from UniProt P29350 1-595) (domain or fragment)”, the Kd in assay [7] was 760 nM and 1200 nM and 610 nM; in assay [4], 2000 nM and 1600 nM; in assay [5], 1100 nM and 660 nM and 3200 nM.
